± gives the standard deviation.
Assay: protein stability index of a GFP-peptide fusion (GPS, HEK-293T) (PSI 1-6); higher = more stable
[1] = treatment: DMSO, c terminus: a fixed tail appended
[2] = treatment: MLN4924 1 uM, 8 h, c terminus: a fixed tail appended
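Also: 24-mer peptide tiles fused after GFP, lentivirally expressed, FACS-sorted into six equal bins by GFP/DsRed ratio, decoded by Illumina sequencing, PSI is the read-weighted mean bin number.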

## MWVRFRAFEAARDLDACALVRGHR [ZSWIM9]
[1]
  protein stability index: 2.17 ± 0.25
[2]
  protein stability index: 2.06 ± 0.22

## EDSRTSKESMSEADRAQKMDGESE [EHMT1]
[1]
  protein stability index: 5.5 ± 0.33
[2]
  protein stability index: 5.64 ± 0.23

## QKRETLSPLCLIPMVTSPREEQQL [KCTD13]
[1]
  protein stability index: 3.98 ± 0.18
[2]
  protein stability index: 4.08 ± 0.15

## KERILLVTDKTLLICKYDFIMLSC [TPRG1]
[1]
  protein stability index: 3.06 ± 0.42
[2]
  protein stability index: 2.61 ± 0.31

## GTLTPRMTTDFDLSLDNSPLLQSI [TRIM9]
[1]
  protein stability index: 3.43 ± 0.28
[2]
  protein stability index: 3.48 ± 0.36

## LMGDESACIAYIRITQYLDAGGIP [CAMK2A]
[1]
  protein stability index: 3.21 ± 0.89
[2]
  protein stability index: 2.77 ± 0.68

## MVGEEKMSLRNRLSKSRENPEEDE [SOAT1]
[1]
  protein stability index: 5.52 ± 0.16
[2]
  protein stability index: 5.44 ± 0.21

## MQPFNYVTLQCLAARALDKNKIPY [FEM1A]
[1]
  protein stability index: 3.25 ± 0.38
[2]
  protein stability index: 2.97 ± 0.31

## AKMAGIGIREASSGGGGSSSNFHI [KRT15]
[1]
  protein stability index: 3.16 ± 0.4
[2]
  protein stability index: 3.14 ± 0.27

## EPEPAEVTSTSQSPHSPDSSQSSL [DDIT3]
[1]
  protein stability index: 5.48 ± 0.15
[2]
  protein stability index: 5.58 ± 0.13

## NRELWKEFSSVGTEMIITKAGRRM [TBX6]
[1]
  protein stability index: 2.88 ± 0.27
[2]
  protein stability index: 3.21 ± 0.4

## PKKKHLDYLIQATNETNVNIPQMA [SNAP91]
[1]
  protein stability index: 3.67 ± 0.13
[2]
  protein stability index: 3.43 ± 0.33

## DRKVLLKSDSPTGDVLLDETLKHI [GOLPH3L]
[1]
  protein stability index: 4.17 ± 0.16
[2]
  protein stability index: 4.54 ± 0.3

## CLDSPGPLDSKENLENPMRRIHSL [CDC25A]
[1]
  protein stability index: 4.27 ± 0.19
[2]
  protein stability index: 3.91 ± 0.26

## RLASYLDKVRALEEANADLEVKIR [KRT16]
[1]
  protein stability index: 2.39 ± 0.26
[2]
  protein stability index: 2.59 ± 0.5

## YHAVVEPMLWNPSGTPKRYSLELG [C22orf31]
[1]
  protein stability index: 2.77 ± 0.54
[2]
  protein stability index: 2.81 ± 0.17

## KSHVYMAWNIPMSNPGVDFGDVSE [GALNT9]
[1]
  protein stability index: 2.65 ± 0.26
[2]
  protein stability index: 2.79 ± 0.15

## GAAGRSQEPEVPCAAVLPGKPGDR [RSPH3]
[1]
  protein stability index: 5.31 ± 0.29
[2]
  protein stability index: 5.31 ± 0.2

## SVAEGYYSHRETVNGSWYIQDLCE [CASP6]
[1]
  protein stability index: 3.23 ± 0.22
[2]
  protein stability index: 3.11 ± 0.35

## PRQVSYTPQHHEKQYAMQRPNDDS [IQUB]
[1]
  protein stability index: 4.78 ± 0.22
[2]
  protein stability index: 4.77 ± 0.12

## PNIVVAIAGNKCDLIDVREVMERD [RAB22A]
[1]
  protein stability index: 3.68 ± 0.14
[2]
  protein stability index: 3.68 ± 0.25

## APVPTHSTVSELSRSPVATATSC [DUSP5]
treatment: DMSO, c terminus: native
  protein stability index: 2.72 ± 0.17
treatment: MLN4924 1 uM, 8 h, c terminus: native
  protein stability index: 2.86 ± 0.13

## LHCYRDRPHEVLLCSDLVKAYQRC [CHCHD6]
[1]
  protein stability index: 2.16 ± 0.36
[2]
  protein stability index: 2.19 ± 0.24

## PAFRFLTKMWHPNIYETGDVCISI [CDC34]
[1]
  protein stability index: 3.2 ± 0.42
[2]
  protein stability index: 3.04 ± 0.59

## AGSVVAAVQGLNLRSPNNFLSYYR [CCND1]
[1]
  protein stability index: 2.58 ± 0.2
[2]
  protein stability index: 2.61 ± 0.32

## DSDFRELHTAREFSEEDEEETTSQ [RTN2]
[1]
  protein stability index: 5.64 ± 0.17
[2]
  protein stability index: 5.5 ± 0.17

## RRASICCTQLGSLSALKHAVLGLY [SCARA5]
[1]
  protein stability index: 2.44 ± 0.38
[2]
  protein stability index: 2.07 ± 0.28

## GNFQGIRFHYDRNPGTDAVAQTSL [FATE1]
[1]
  protein stability index: 3.38 ± 0.22
[2]
  protein stability index: 3.42 ± 0.16

## PAVATLCDLFDREIVVTISWAKSI [ESRRA]
[1]
  protein stability index: 2.65 ± 0.56
[2]
  protein stability index: 3.36 ± 0.85

## SPDSSMLCSVGASKAVFLWNMDKY [WSB1]
[1]
  protein stability index: 2.35 ± 0.42
[2]
  protein stability index: 2.35 ± 0.26

## NLDANLAFASFTSGVVRIWDLRDQ [TLE6]
[1]
  protein stability index: 2.3 ± 0.28
[2]
  protein stability index: 2.36 ± 0.33

## ELDDPGQPVSLRRRKREVLVEDMV [ZNF24]
[1]
  protein stability index: 4.66 ± 0.12
[2]
  protein stability index: 4.68 ± 0.17

## SENCPKVISCEFAHNSNWYITFQS [LARP4]
[1]
  protein stability index: 2.21 ± 0.23
[2]
  protein stability index: 2.08 ± 0.27

## SLGKARTAQVQKDARIGEAEAKRD [FLOT1]
[1]
  protein stability index: 5.31 ± 0.21
[2]
  protein stability index: 5.12 ± 0.36

## ARELQEALPEAPAPLLPHITATSL [BCL2L13]
[1]
  protein stability index: 4.32 ± 0.4
[2]
  protein stability index: 4.32 ± 0.22

## RKEMATILSKMPKPKPPPNSEGEQ [CCNC]
[1]
  protein stability index: 5.06 ± 0.34
[2]
  protein stability index: 5.06 ± 0.19

## WGVCEPQREEVEERMWAAIQSWDI [ZER1]
[1]
  protein stability index: 3.35 ± 0.22
[2]
  protein stability index: 3.56 ± 0.3

## ISGALLQIKTLLALSCHEQEMVVS [SLC2A12]
[1]
  protein stability index: 2.91 ± 0.5
[2]
  protein stability index: 2.42 ± 0.48

## SLCKALAQKLTIRLSSRYRYGQLI [TRIP13]
[1]
  protein stability index: 3.01 ± 0.47
[2]
  protein stability index: 3.16 ± 0.66

## RRLGLSTLGELKQNLSRSWHDVQV [TPD52L2]
[1]
  protein stability index: 2.9 ± 0.24
[2]
  protein stability index: 2.96 ± 0.24

## NRDEHSSRGYRNHRSSRETRDYAP [RBMY1A1]
[1]
  protein stability index: 4.74 ± 0.072
[2]
  protein stability index: 4.63 ± 0.095

## GSKNVFSTFRTPAVLFTGIVALYI [ATL3]
[1]
  protein stability index: 3.11 ± 0.7
[2]
  protein stability index: 2.67 ± 0.57

## LKTKDGKLPFCAMGVSSVIHPKNP [CPOX]
[1]
  protein stability index: 3.17 ± 0.34
[2]
  protein stability index: 3.17 ± 0.51

## ETYLQNHFAEEERSKYDYLMILRR [TENT5C]
[1]
  protein stability index: 2.84 ± 0.1
[2]
  protein stability index: 3.13 ± 0.23

## APGTGPAQTELLCCLVKMESLEPD [FANCE]
[1]
  protein stability index: 3.28 ± 0.23
[2]
  protein stability index: 3.39 ± 0.12
